Laboratory results: patent publication US6653460B1 (priority 1996, dated 2003)
Where “and” joins values, the source holds several entries; their conditions need not be identical. Equal entries are not always repeated. Where two headings read alike, the source gives them in different places.

Assays:
[1] = target: T1, N-type calcium channels (IMR-32 neuroblastoma cells) (Homo sapiens, UniProt Q00975); assay: cell-based
T1 construct: host or cells: IMR-32 (differentiated)

[2] = target: class A (P/Q) calcium channels (Oryctolagus cuniculus, UniProt P27884); assay: Two-electrode voltage clamp of barium currents in Xenopus oocytes expressing class A alpha-1 subunits; conditions: 4 mM barium
Procedure: In these experiments, barium currents (4 mM barium, no added calcium, in medium) through the calcium channels were measured for technical reasons, in accordance with methods known in the art.
The cRNA for the alpha-1 subunit described in Mori et al. (1991) was expressed in Xenopus oocytes by standard methods (Goldin, 1992). For expression, cRNA for the alpha-1 subunit was co-injected with cRNA for the rabbit alpha2 and delta (Ellis et al. 1988) and human beta (Williams et al. 1992) subunits in equimolar ratios. Approximately 50 nL was injected per oocyte, with a total cRNA concentration of 0.8 μg/μL.
Currents were recorded, by two-electrode voltage clamp using a solution of 4 mM barium chloride, 38 mM potassium chloride, 36 mM tetraethylammonium chloride, 5 mM 4-aminopyridine, 0.4 mM niflumic acid, 5 mM HEPES (pH 7.5), and 0.1 mg/mL bovine serum albumin. Data were sampled at 5 kHz and filtered at 1 kHz utilizing a OC-725B voltage-clamp amplifier. (Warner Instruments) interfaced to PCLAMP software (Axon Instruments, Foster City, Calif.) for acquisition and analysis. Leak and capacitance currents were subtracted on-line using a P/4 protocol. Voltage pulses to 0 mV from a holding potential of −80 mV were used to elicit currents every 10 s.

[3] = target: class B voltage-gated calcium channel (human alpha-1B subunit) stably expressed in S3 cells (HEK 293) (human) (UniProt Q00975); assay: cell-based or functional assay
[4] = target: T2, class E calcium channels (192C cells) (Homo sapiens, UniProt Q15878); format: cell-based
T2 construct: expressed in transfected cells; host or cells: HEK 293 (192C cells)

[5] = tested on: DBA/2 mice; conditions: mouse, in vivo
[6] = target: class E calcium channels (Homo sapiens, UniProt Q15878); assay: Class E channel blocking, summary statements (two separate measures of channel blocking activity); format: cell-based; conditions: no method given
[7] = target: L-type calcium channels of GH3 cells (rat); assay: cell-based or functional assay

class A (P/Q) calcium channels, sequence (P27884 whole entry): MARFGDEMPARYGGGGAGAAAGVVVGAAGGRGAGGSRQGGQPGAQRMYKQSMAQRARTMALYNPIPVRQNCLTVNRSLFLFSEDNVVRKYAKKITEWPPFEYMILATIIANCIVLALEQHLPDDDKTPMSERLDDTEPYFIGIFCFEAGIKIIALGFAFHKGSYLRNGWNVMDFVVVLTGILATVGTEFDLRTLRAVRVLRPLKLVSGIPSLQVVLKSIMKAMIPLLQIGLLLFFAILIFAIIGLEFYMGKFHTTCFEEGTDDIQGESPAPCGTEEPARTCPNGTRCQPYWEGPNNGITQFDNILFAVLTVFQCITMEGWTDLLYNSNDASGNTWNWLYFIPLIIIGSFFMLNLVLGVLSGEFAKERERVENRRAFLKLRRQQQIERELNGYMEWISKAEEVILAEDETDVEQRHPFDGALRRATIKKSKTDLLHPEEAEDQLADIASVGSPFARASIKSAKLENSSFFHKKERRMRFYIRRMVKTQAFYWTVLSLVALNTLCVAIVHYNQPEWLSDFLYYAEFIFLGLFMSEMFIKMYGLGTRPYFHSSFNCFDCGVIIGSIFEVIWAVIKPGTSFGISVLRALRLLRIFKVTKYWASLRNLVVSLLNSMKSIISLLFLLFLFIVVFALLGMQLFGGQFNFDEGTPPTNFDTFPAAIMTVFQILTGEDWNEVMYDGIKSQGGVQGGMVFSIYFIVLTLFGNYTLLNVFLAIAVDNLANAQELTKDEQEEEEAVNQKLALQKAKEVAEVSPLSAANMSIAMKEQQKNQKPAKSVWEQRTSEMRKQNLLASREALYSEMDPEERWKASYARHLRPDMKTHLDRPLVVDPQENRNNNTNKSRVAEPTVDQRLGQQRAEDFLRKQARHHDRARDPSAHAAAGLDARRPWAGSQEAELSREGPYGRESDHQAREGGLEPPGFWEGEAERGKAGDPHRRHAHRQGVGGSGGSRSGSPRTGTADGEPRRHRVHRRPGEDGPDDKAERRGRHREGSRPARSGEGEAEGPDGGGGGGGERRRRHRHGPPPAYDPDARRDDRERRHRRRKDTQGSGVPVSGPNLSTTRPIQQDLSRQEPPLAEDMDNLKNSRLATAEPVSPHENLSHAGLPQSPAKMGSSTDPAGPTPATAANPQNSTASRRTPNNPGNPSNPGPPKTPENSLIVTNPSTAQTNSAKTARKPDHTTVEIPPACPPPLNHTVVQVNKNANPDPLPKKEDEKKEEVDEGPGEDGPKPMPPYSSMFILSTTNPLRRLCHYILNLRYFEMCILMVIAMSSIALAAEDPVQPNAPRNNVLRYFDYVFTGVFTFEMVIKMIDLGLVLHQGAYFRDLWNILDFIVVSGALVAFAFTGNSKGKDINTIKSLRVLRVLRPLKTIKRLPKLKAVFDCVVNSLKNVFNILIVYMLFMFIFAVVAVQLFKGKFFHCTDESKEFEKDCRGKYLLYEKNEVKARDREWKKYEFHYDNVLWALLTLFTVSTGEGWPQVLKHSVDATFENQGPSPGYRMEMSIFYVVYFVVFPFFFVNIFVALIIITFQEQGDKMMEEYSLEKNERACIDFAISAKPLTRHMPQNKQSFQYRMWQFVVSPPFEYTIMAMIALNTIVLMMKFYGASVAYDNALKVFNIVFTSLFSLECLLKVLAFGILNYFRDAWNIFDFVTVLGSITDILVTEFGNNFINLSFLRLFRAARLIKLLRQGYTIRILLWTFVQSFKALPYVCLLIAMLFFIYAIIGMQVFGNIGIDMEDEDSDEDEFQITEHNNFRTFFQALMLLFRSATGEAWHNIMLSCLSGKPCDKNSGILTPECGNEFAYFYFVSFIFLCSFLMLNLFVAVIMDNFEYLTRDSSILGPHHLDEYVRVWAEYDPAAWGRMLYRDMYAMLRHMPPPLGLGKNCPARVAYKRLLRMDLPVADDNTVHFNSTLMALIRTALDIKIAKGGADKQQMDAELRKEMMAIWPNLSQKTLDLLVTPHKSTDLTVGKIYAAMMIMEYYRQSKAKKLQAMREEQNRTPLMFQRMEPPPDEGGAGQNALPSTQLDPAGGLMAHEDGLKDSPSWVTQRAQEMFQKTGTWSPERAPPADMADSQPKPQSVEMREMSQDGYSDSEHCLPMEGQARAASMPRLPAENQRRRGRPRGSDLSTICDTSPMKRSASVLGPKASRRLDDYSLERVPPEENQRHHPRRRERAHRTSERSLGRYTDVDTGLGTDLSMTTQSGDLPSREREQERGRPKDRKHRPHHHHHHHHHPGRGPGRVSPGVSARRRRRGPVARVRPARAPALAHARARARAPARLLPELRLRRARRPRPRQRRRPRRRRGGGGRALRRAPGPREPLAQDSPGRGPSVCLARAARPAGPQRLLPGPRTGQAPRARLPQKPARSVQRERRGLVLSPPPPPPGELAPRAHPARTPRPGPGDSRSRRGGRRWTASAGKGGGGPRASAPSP
class A (P/Q) calcium channels, sequence (P13806 27-960 partner limits assumed): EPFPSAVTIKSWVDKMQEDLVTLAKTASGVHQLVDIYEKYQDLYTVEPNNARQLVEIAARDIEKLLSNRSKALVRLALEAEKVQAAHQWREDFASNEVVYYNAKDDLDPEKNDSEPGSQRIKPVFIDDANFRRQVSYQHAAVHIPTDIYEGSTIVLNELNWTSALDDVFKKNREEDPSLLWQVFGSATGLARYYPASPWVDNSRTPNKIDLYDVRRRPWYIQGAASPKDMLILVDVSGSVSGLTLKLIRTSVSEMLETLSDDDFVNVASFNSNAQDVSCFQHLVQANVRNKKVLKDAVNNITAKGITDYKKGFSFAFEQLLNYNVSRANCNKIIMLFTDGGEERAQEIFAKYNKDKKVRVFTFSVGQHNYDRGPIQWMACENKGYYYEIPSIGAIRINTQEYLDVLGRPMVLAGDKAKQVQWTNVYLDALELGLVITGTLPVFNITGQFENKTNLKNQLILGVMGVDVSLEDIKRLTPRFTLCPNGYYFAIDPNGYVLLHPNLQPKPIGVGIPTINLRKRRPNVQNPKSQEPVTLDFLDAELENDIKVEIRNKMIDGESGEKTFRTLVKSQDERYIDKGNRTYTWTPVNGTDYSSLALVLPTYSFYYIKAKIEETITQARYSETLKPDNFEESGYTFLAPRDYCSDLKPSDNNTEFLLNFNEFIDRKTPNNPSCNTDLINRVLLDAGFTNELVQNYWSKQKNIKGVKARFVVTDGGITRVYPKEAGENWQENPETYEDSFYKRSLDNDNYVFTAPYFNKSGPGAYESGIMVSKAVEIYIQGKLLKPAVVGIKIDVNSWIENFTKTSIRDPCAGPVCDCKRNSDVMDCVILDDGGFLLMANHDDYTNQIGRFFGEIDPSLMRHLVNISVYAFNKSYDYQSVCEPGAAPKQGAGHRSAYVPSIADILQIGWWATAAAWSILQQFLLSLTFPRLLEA
class A (P/Q) calcium channels, sequence (P13806 961-1106 partner limits assumed): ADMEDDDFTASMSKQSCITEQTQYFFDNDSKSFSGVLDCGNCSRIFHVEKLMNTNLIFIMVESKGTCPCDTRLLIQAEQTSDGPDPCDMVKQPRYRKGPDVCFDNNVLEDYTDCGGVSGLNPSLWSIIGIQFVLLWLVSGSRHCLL
class A (P/Q) calcium channels, sequence (Q02641 whole entry partner): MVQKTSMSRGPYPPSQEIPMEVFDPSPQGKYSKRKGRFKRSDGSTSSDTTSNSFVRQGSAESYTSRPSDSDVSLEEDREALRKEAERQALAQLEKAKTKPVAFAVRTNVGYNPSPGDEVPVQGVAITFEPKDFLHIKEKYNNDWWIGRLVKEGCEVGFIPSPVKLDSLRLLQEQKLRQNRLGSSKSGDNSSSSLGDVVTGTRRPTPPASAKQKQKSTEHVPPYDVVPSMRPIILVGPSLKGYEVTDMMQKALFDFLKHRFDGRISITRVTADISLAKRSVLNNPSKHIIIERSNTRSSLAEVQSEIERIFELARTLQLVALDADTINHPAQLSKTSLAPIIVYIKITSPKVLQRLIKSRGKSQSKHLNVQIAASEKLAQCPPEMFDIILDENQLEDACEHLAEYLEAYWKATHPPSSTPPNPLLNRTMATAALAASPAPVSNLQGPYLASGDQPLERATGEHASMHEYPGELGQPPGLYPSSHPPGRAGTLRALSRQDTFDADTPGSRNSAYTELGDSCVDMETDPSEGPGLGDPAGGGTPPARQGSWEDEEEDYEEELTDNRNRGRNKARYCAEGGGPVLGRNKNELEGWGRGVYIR

CCCC[C@@H]1NC(=O)[C@H](CC(C)C)NC(=O)[C@H](CCCNC(=N)N)NC(=O)[C@H](CO)NC(=O)[C@@H]2CSSC[C@@H]3NC(=O)[C@H](CO)NC(=O)CNC(=O)[C@H]([C@@H](C)O)NC(=O)[C@H](CSSC[C@H](N)C(=O)N[C@@H](CCCCN)C(=O)NCC(=O)N[C@@H](CCCCN)C(=O)NCC(=O)N[C@@H](C)C(=O)N[C@@H](CCCCN)C(=O)N2)NC(=O)[C@H](CSSC[C@@H](C(N)=O)NC(=O)[C@H](CCCCN)NC(=O)CNC(=O)[C@H](CO)NC(=O)[C@H](CCCNC(=N)N)NC3=O)NC(=O)[C@H](CC(=O)O)NC(=O)[C@H](Cc2ccc(O)cc2)NC1=O [SNX-194]
IC50 [1]: 1 nM
inhibition of remaining transient depolarization evoked increase in internal calcium [1]: nearly completely inhibited

[Cd] [cadmium]
effect on class A (P/Q) barium current ([2]; concentration not given): completely blocked

HG-1 peptide
IC50, block of peak inward calcium current, whole cell patch clamp of S-3 cells [3]: 800 nM

SNX-629: synthetic truncated HG-1 peptide corresponding to HG 1 (7-41), SEQ ID NO: 15 (CRYMFGGCSVNDDCCPRLGCHSLFSYCAWDLTFSD)
concentration inhibiting class E channels relative to that of HG-1 in the same assay [4]: less than 20 times
ED50 for the anticonvulsant effect [5]: about 5 μg/mouse

hanatoxin (ECRYLFGGCKTTSDCCKHEGCKFRDKTCAWDFTFS; listed as Grammostola spatulata)
class E calcium channel antagonist activity [6]: neither of these peptides exhibits class E calcium channel antagonist activity

omega-Aga-IIIA (from UniProt P33034 1-76) (peptide)
apparent IC50, depolarization evoked calcium signal at 60 seconds, INDO-1, GH3 cells (partial block) [7]: 1.5 nM

B1: Aga-IIIA (peptide)
peptide: SCIDIGGDCDGEKDDCQCCRRNGYCSCYSLFGYLKSGCKCVVGTSAEFQGICRRKARQCYNSDPDKCESHNKPKRR
effect on class A (P/Q) barium current ([2]; 60 nM): partially blocked
IC50 ([1]; read-out: apparent IC50 for inhibition of depolarization evoked increase in internal calcium): 0.1 nM and ~0.1 nM
